# In patent publication US8722052B2, “Vaccinia virus protein A46 peptide and use thereof” (priority 2008, dated 2014):
# Ends that are not written are not given here.
# Key:
# TLR4 [1] = molecular target: T1, TLR4 (Mus musculus, UniProt Q9QUK6); test: LPS-induced TNFα in immortalised murine macrophages, ELISA; type: cell-based; design: endogenous in cells; immortalised murine bone-marrow-derived macrophages; conditions: peptide 1, 3, 6.25 and 12.5 μM, 20 ng/ml LPS, 6 h
# T1 sequence (Q9QUK6 26-835): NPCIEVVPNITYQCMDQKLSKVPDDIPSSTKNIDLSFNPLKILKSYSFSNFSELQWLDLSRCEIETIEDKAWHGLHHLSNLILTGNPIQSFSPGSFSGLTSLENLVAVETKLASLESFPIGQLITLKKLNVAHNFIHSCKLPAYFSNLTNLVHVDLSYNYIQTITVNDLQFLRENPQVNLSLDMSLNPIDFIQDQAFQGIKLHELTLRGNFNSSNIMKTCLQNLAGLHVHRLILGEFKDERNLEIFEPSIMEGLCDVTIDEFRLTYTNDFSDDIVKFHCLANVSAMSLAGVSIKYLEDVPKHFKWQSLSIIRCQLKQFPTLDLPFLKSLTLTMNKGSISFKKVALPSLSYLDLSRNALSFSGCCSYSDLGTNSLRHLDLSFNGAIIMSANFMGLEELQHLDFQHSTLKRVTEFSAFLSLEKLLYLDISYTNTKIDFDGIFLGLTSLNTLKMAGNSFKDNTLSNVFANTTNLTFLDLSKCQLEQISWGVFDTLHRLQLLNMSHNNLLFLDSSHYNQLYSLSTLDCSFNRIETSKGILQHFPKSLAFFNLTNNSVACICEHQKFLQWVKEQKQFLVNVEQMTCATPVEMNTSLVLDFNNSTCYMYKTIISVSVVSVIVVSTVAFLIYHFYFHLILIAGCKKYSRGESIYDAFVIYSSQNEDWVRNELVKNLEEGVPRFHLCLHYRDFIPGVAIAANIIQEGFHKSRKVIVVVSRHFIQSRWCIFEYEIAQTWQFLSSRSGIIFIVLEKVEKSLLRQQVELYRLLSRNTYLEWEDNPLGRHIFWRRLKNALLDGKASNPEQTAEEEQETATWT
# T1 sequence (Q9JHF9 19-160 partner): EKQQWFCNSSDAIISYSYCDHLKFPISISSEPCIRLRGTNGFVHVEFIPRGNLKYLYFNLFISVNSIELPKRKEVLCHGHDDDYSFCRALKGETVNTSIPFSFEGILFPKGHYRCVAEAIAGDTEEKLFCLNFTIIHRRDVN
# TLR4 [2] = test: LPS-induced NFκB reporter assay in HEK293_TLR4 cells; type: cell-based, human; conditions: peptide 1, 5 or 25 μM 1 h before 10 ng/ml LPS, 6 h
# Method: (§1) FIGS. 20A and B are bar charts showing the effect of shortened A464 peptides with deletions of N- and C-terminal amino acids on TLR4- and TLR3-induced NFκB activation in HEK293 cells. HEK293_TLR4 (A) and HEK293_TLR3 (B) cells were seeded in 96 well plates (1.5×10^5 cells/ml) 24 hours before transfection with the plasmid DNA. Cells were transfected with 60 ng NFκB-Luciferase and 20 ng of TK-Renilla reporter genes, as in FIG. 11. A464N-2 (SEQ ID NO. 41) and A464C-3 (SEQ ID NO. 42) peptides were added to the cells at a concentration of 1, 5 or 25 μM the next day and cells were stimulated with either 10 ng/ml LPS (A) or 25 μg/ml Poly(I:C) (B) 1 hour after treatment with peptides. Cells were harvested and assayed for NFκB activation by reporter gene assay 6 hours after stimulation with the agonists. No peptides were added to the control wells (black bars). Data is representative of three experiments each performed in triplicate and is expressed as mean fold induction±s.d. relative to control levels;
# FIGS. 24A and B are bar charts showing the effect of A464 on ligand-independent TLR4 signalling in HEK293 cells. HEK293_TLR4 cells were seeded in 96 well plate (1.5×10^5 cells/ml) 24 hours before transfection with NFκB-luciferase and TK-Renilla reporter gene plasmids. NFκB activation was stimulated by transfecting either 50 or 100 ng of CD4/TLR4-encoding plasmid or by stimulating with 10 ng/ml LPS. The total amount of plasmid DNA transfected into the cells was made up to 230ng by adding pcDNA. A464 (SEQ ID NO. 20) was added to the cells at a concentration of 5 or 25 μM 2 hours (A) or 9 hours (B) after the transfection or LPS-stimulation. Cells were harvested and assayed for NFκB activation by reporter gene assay 24 hours post-transfection. No peptides were added to the control wells (black bars). Data is representative of two experiments, each performed in triplicate and is expressed as mean fold induction±s.d. relative to control levels;
# HEK293 cells were transfected using GeneJuice® a proprietary non-toxic transfection reagent. […]
# TLR3 = molecular target: T2, TLR3 (Homo sapiens, UniProt O15455); test: poly(I:C)-induced NFκB / ISRE luciferase reporter assay in HEK293_TLR3 cells; type: cell-based; conditions: peptide 1, 5 or 25 μM, 25 μg/ml Poly(I:C), 6 h
# T2 construct: expressed in transfected cells
# Method: FIGS. 11A and B are bar charts showing the effect of A464 and scrambled A464 (ConA464) on poly(I:C)-induced TLR3 signalling in HEK293 cells. HEK293_TLR3 cells were seeded in 96 well plates (1.5×10^5 cells/ml) 24 hours before transfection with the plasmid DNA. Cells were transfected with 60 ng of either ISRE-Luciferase (A) or NFκB-Luciferase (B) and 20 ng of TK-Renilla reporter gene plasmids. The total volume of plasmid DNA transfected into the cells was made up to 230 ng by adding pcDNA.
# Scrambled A464 (ConA464) (SEQ ID NO. 32) and A464 (SEQ ID NO. 20) peptides were added to the cells at a concentration of 2, 5 or 10 μM the next day and cells were stimulated with 25 μg/ml poly(I:C) 1 hour after treatment with the peptide. Cells were harvested and reporter gene assays performed 6 hr after stimulation with the agonist. No peptides were added to the control wells (black bars). Data is representative of at least three experiments each performed in triplicate. Data are expressed as mean fold induction±s.d. relative to control levels;
# as §1
# HEK293 cells were transfected using GeneJuice® a proprietary non-toxic transfection reagent. 200 μl/well cells at a density of 1×10^5 cells/ml were seeded the day before transfection. 0.8 μl of GeneJuice was mixed with 9.2 μl of serum-free DMEM (SFM) per transfection and incubated for 5 min at room temperature before adding the appropriate amount of the plasmid DNA. The GeneJuice/SFM/DNA mixture was then incubated at room temperature for 15 min before adding to the cells. 10 μl per well of the GeneJuice/SMF/DNA mixture was added to the cells in triplicate and the cells were allowed to recover for 18-20 hours before stimulation. […]
# TLR4 [3] = test: LPS-induced TNFα in PMA-differentiated U937 cells, ELISA; type: cell-based, human; conditions: peptide 5 or 20 μM 1 h before 100 ng/ml LPS, 24 h
# Method: FIGS. 3A and B are bar charts showing the effect of peptides derived from A46 on LPS-induced TNFα in human U937 cells. Cells were differentiated with 200 nM PMA and seeded in 96 well plates (2×10^5 cells/ml) 24 hours before treatment. A46 peptides were added to the cells at a concentration of 5 or 20 μM 1 hour before stimulating with 100 ng/ml LPS. Supernatants were collected 24 hours after stimulation and assayed for TNFα by ELISA. No peptides were added into the control wells (black bars). (A) peptides A461-A467 (SEQ ID NO. 17 to 23). (B) peptides A468-A4614 (SEQ ID NO. 24 to 30) (excluding A4612 SEQ ID NO. 28). Data is representative of at least two experiments each performed in triplicate and is expressed as mean±s.d;
# Cytokine and chemokine production from cells or mouse serum was measured by ELISA using Duoset kits from R&D systems, according to the manufacturer's instructions.
# LPS is a component of a cell wall of Gram-negative bacteria which is recognised by a homodimer of TLR4 and signals to NFκB via both a MyD88- and TRIF-dependent pathway (O'Neill and Bowie, 2007). In order to examine the effect of the peptides on TLR4-dependent gene induction in human cells, the human monocytic lymphoma cell line U937 was used. U937 cells were differentiated into macrophages by treatment with 200 nM PMA for 24 hours before any further manipulations. […]
# PBMCs = test: MTT cell viability assay, PBMC; type: cell-based, human; conditions: peptide 1, 5 and 25 μM
# Method: FIGS. 13A and B are bar charts showing the effect of A467 and A464 on LPS-induced TNFα production and on cell viability in primary human cells. Peripheral blood mononuclear cells (PBMCs) were seeded in 96 well plates (1 ×10^6 cells/ml) 24 hours before treatment. A467 (SEQ ID NO. 23) and A464 (SEQ ID NO. 20) were added to the cells at 1, 5 and 25 μM 1 hour before stimulating with 10 ng/ml LPS. The peptides were added into the unstimulated control wells at 25 μM. Supernatants were collected 6 hours after stimulation and assayed for TNFα production by ELISA (A). The cells were assayed for viability by the MTT assay (B). No peptides were added to the control wells (black bars). Data is representative of at least three experiments each performed in triplicate and is expressed as mean±s.d;
# Cell viability was measured by assessing mitochondrial function using an MTT (3-(4,5-Dimethylthiazol-2-yl)-2,5-diphenyltetrazolium bromide) assay. Cells were seeded into 96 well plates and treated with peptides and agonists as described above in relation to the Figs. Wells containing medium only served as a blank control. To terminate treatment of cells, medium was removed and the cells were washed once with PBS. […] MTT was then removed and 200 μl per well of dimethyl sulphoxide (DMSO) was added and cells incubated for 20 min at 37° C. in the dark, prior to absorbance being read at 595 nm on a spectrophotometer.
# TLR4, sequence (O00206 24-839): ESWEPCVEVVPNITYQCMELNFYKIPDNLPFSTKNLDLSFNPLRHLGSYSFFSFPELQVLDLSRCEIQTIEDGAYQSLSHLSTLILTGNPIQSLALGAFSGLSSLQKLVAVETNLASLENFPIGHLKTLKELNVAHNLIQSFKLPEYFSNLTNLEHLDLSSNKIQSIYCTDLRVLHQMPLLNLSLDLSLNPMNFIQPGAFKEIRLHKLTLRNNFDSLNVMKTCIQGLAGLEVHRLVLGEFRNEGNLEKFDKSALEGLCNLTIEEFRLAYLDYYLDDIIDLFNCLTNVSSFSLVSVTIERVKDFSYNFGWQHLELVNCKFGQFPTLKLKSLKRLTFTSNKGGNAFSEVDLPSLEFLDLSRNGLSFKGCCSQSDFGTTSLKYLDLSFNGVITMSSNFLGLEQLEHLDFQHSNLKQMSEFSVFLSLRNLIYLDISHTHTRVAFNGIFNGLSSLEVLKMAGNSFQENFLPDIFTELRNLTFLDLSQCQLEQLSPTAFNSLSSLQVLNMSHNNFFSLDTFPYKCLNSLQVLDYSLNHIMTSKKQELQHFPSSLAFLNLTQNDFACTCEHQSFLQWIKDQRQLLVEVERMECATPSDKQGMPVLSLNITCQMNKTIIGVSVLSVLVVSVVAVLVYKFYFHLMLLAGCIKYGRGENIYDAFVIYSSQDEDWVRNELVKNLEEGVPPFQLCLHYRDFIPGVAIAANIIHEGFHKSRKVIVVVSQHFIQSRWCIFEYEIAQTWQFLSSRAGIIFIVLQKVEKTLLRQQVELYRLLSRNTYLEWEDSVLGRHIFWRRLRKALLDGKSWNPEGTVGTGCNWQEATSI
# TLR4, sequence (Q9Y6Y9 17-160 partner limits assumed): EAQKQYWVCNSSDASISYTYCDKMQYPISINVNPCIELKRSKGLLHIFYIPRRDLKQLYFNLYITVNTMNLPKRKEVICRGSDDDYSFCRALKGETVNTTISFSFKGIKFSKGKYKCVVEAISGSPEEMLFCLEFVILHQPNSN
substance,measurement,setting,value
9R-FKLI (RRRRRRRRRFKLI) [Peptide 9R-FKLI],inhibition of TLR4-induced murine TNFα by shorter versions of sA464N9R,TLR4 [1],did not
9R-FKLIL (RRRRRRRRRFKLIL) [Peptide 9R-FKLIL],inhibition of TLR4-induced murine TNFα by shorter versions of sA464N9R,TLR4 [1],retained the ability to inhibit TLR4
9R-SFKLFL (RRRRRRRRRSFKLFL) [Peptide 9R-SFKLFL],inhibition of TLR4-induced murine TNFα by shorter versions of sA464N9R,TLR4 [1],did not
9R-SFKLI (RRRRRRRRRSFKLI) [Peptide 9R-SFKLI],inhibition of TLR4-induced murine TNFα by shorter versions of sA464N9R,TLR4 [1],did not
KYSFKLIL-9R (KYSFKLILRRRRRRRRR) [Peptide A464C-3],inhibition of LPS-induced NFκB activation by shortened peptides,TLR4 [2],inhibited LPS-induced NFκB activation completely at 1 μM
same,inhibition of Poly(I:C)-induced NFκB activation (TLR3) by shortened peptides,TLR3,no inhibition of TLR3 signalling to NFκB up to 25 μM
LILAEYIRHRNRRRRRRRRR [Peptide A465],inhibition of LPS (TLR4)-induced TNFα production,TLR4 [3],did not inhibit TLR4 responses
RNTISGNIYSARRRRRRRRR [Peptide A467],toxicity (MTT),PBMCs,not toxic
SFKLILAEY-9R (SFKLILAEYRRRRRRRRR) [Peptide A464N-2],inhibition of LPS-induced NFκB activation by shortened peptides,TLR4 [2],inhibited LPS-induced NFκB activation completely at 1 μM
same,inhibition of Poly(I:C)-induced NFκB activation (TLR3) by shortened peptides,TLR3,no inhibition of TLR3 signalling to NFκB up to 25 μM
